Patent US20250092147A1 (PEPMAB B V, published 2025)
Positions count from the first letter of the chain named. Where “and” joins values, the source holds several entries; their conditions need not be identical. Equal values may be shown once.

Assays:
human CCR7 [1] = molecular target: T1, human CCR7 (human, UniProt P32248 25-378, sulfated tyrosine residues in position Y32 and Y41 (as the filing describes the N-terminal extracellular domain)); experiment: cell-based or functional assay
T1 sequence: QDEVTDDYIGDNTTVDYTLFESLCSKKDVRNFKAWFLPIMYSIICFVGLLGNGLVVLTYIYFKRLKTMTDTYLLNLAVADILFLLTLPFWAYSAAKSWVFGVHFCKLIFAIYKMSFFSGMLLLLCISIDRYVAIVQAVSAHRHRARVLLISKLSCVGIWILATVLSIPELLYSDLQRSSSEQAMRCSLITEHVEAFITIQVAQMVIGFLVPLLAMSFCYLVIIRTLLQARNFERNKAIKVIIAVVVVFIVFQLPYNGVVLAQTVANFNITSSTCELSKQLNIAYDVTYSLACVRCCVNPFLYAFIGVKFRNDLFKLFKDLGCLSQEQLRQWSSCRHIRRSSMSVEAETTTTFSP

sulfated antigen SYM1899 = molecular target: T2, sulfated antigen SYM1899 (human, N-terminal pyroGlu; Z denotes sulfated Tyrosine (two Z in (pyroGlu)DEVTDDZIGDNTTVDZTLFESLCSKKDVRNK)); experiment: ELISA, SYM1899 coated on the plate, 4 parameter logistics curve fit
T2 construct: also called immunogen SYM1899; synthetic antigen SYM1899
T2 peptide: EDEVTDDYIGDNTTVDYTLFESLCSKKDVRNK
Method: SEQ ID NO: 76). 100 ng/well SYM1899 was immobilized onto 96 well Maxisorp plates in coating buffer. Coating buffer was removed and 200 μl/well of block solution (3% w/v semi skim milk powder, PBS) was added and agitated 2 hours room temperature. Plate was washed six times with PBS-T (0.001% v/v Tween 20). […] 100 μl per well in triplicate of each antibody dilution was added to the plate in addition to a negative control of PBS and incubated 2 hours at room temperature with agitation. Plate was washed six times with PBS-T. 100 μl/well goat anti human HRP (Fc specific) (1:60,000 in PBS) was added and plates incubated for one hour agitated at room temperature. Plate was washed six times with PBS-T and once in PBS. 100 μl/well of TMB substrate solution was added and incubated at 37° C. for 10 minutes. 50 μl 1M HCl was added per well and the plate immediately read at 450 nm on a Biolise plate reader.

human CCR7 [2] = molecular target: T1, human CCR7; experiment: FACS (flow cytometry) on CLL and TPLL cells
Method: Binding of antibodies to membrane expressed CCR7 was determined by Fluorescence-activated cell sorting (FACS) by flow cytometry on three different chronic lymphocytic leukemia (CLL) samples and on three different T-cell Prolymphocytic leukaemia (TPLL) samples (data not shown). Appropriate controls (human isotype controls) were included to easily calculate the percentage of positive cells and/or the relative median fluorescence intensity (RMFI), obtained from the ratio MFI (sample)/MFI (control).

B1: humanized anti-CCR7 mAb 650 variant HC1 LC1 (antibody, V domains shown)
VH: EVQLLESGGGFVKPGGSLKLSCVVSGLTFRDFAMSWVRQTPEKRLVWVATISSGGFYTYYPDSVKGRFTISRDNVRNILYLQMSSLRSEDTAVYYCVRRAYRYDGTGDYSALDYWGTGTTVTVSS
VL: DIQMTQSPSSLSASVGDRVTITCRASQDIGPSLNWYQQKPGKAPKRLIYATSNLDSGVPSRFSGSGSGTDFTLTISSLQPEDFATYYCLQFASSPLTFGQGTKVEIK
- IC50 of inhibition of CCL19 induced CCR7 receptor internalization (PathHunter active internalization assay) (human CCR7 [1]): 0.415 µg/ml and 2.8 nM
- IC50 of inhibition of CCL19 induced cAMP signalling (cAMP Secondary Messenger Pathway assay) (human CCR7 [1]): 1.61 µg/ml and 10.7 nM
- IC50 of inhibition of CCL19 induced β-arrestin recruitment (PathHunter) (human CCR7 [1]): 9.56 µg/ml and 63.7 nM

B2: humanized anti-CCR7 mAb 650 variant HC3 LC3 (antibody, V domains shown)
VH: EVQLVESGGGLVQPGGSLRLSCAVSGLTFRDFAMSWVRQAPGKGLEWVSTISSGGFYTYYPDSVKGRFTISRDNSKNTLYLQMNSLRAEDTASYYCVRRAYRYDGTGDYSALDYWGQGTLVTVSS
VL: B1 VL with Y36L, R46S, R61K, T72S, K103R, V104L
notes: Human Fc; See the note on VK3 under HC1 LC3
- EC50 (sulfated antigen SYM1899): > 100 nM

B3: control antibody 11-x (antibody, human IgG1, V domains shown)
VH: EVQLLESGGGFVKPGGSLKLSCVVSGLTFRDFAMSWVRQTPEKRLVWVATISSGGFYTYYPDSVKGRFTISRDNVRNILYLQMSSLRSEDTAVYYCARATTVVGTDFDYWGTGTTVTVSS
VL: B1 VL
- binding result (human CCR7 [2]): no binding

B4: humanized anti-CCR7 mAb 650 variant HC2 LC3 (antibody, V domains shown)
VH: B2 VH with Q13K, V24A, S25P, S75A, K76A, T78S, S93V
VL: B1 VL with Y36L, R46S, R61K, T72S, K103R, V104L
notes: as for B2
- EC50 (sulfated antigen SYM1899): > 100 nM

B5: humanized anti-CCR7 mAb 650 variant HC1 LC3 (antibody, V domains shown)
VH: B1 VH
VL: B1 VL with Y36L, R46S, R61K, T72S, K103R, V104L
notes: Human Fc
- EC50 (sulfated antigen SYM1899): > 100 nM
